What was measured:
Assay in all cases: ELISA
17G10 = molecular target: 17G10
6B11 = molecular target: 6B11
12D9 = molecular target: 12D9

B1: mouse ENO1 (receptor)
chain: MSILRIHAREIFDSRGNPTVEVDLYTAKGLFRAAVPSGASTGIYEALELRDNDKTRFMGKGVSQAVEHINKTIAPALVSKKVNVVEQEKIDKLMIEMDGTENKSKFGANAILGVSLAVCKAGAVEKGVPLYRHIADLAGNPEVILPVPAFNVINGGSHAGNKLAMQEFMILPVGASSFREAMRIGAEVYHNLKNVIKEKYGKDATNVGDEGGFAPNILENKEALELLKTAIAKAGYTDQVVIGMDVAASEFYRSGKYDLDFKSPDDPSRYITPDQLADLYKSFVQNYPVVSIEDPFDQDDWGAWQKFTASAGIQVVGDDLTVTNPKRIAKAASEKSCNCLLLKVNQIGSVTESLQACKLAQSNGWGVMVSHRSGETEDTFIADLVVGLCTGQIKTGAPCRSERLAKYNQILRIEEELGSKAKFAGRSFRNPLAK
Q: How did the Kd (17G10) turn out when B1 was run?
A: The Kd was 33.9 nM.

Q: And the Kd (6B11)?
A: Its Kd is 3.04 nM.

Q: And the Kd (12D9)?
A: The Kd was 0.39 nM.

Source: patent US20150175710A1 (published 2015)
